Data: paper PMC4361793

What was measured:
[1] = target: mussel foot protein-3 slow (mfp-3s), hydrophobic variant (Mytilus californianus); test: surface forces apparatus
[2] = target: mussel foot protein-3 slow (mfp-3s), hydrophobic variant (Mytilus californianus); test: QCM-D

Substance	cohesive energy Wc (tc ~ 2 min) [1] [mJ/m^2]	cohesive energy Wc of mfp-3s films with COL1A1 between them [1] [mJ/m^2]	adsorbed hydrated mass after adding mfp-3s to TiO2 pre-exposed to COL1A1 [2] [ng/cm^2]	total adsorbed hydrated mass of COL1A1/mfp-3s on TiO2 [2] [ng/cm^2]
mussel foot protein-3 slow (mfp-3s), hydrophobic variant (natural protein)	5.4	–	–	–
rat-tail tropocollagen type-1 (COL1A1) (from UniProt P02454 152-1207; P02466 86-1125) (natural protein)	–	7.2	209	445
